From the supplement of paper PMC9170038

Tests used:
MS2 coat protein [1] = assay: apparent KD of MS2 coat protein, switch ON state; designed switch direction (-1 OFF switch, 1 ON switch): -1; higher = weaker reporter binding; conditions: FMN input: 0 or 200 uM; Eterna round: R93 (includes R88 designs)
In short: (§1)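 Designed RNA switches, transcribed on-chip from Illumina sequencing clusters, were titrated with SNAP-549-labelled MS2 coat protein from 0.7 or 1.5 nM to 3 µM in twofold steps. The solution was 100 mM Tris-HCl pH 7.5, 80 mM KCl, 4 mM MgCl2, with constant ligand or without it. Apparent KD is the median over each design's normalised cluster binding-curve fits.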

MS2 coat protein [2] = assay: apparent KD of MS2 coat protein, switch OFF state (with FMN for OFF switches, without FMN for ON switches); designed switch direction (-1 OFF switch, 1 ON switch): -1; higher = weaker reporter binding; conditions: FMN input: 0 or 200 uM; Eterna round: R93 (includes R88 designs)
In short: as §1

Sequence	apparent KD of MS2 coat protein (MS2 coat protein [1])	apparent KD of MS2 coat protein (MS2 coat protein [2])
AGGAAACAUGAGGAUCACCCAUGUGAGGAUAUAGAAAAGAAAAGAAAAGAAAGAAGAACUAGAAGGCACAAGAA [Neheb]	31.2 nM	28.8 nM
AGGAUGUCAGGAUAUGUGUAAAGAAUAAAACAAAUAACAACACAGAAGGGACAUGAGGAUCACCCAUGUUACCA [May 37]	19.9 nM	20.9 nM
AGGGAGUAAGGAUAUGAGAAAUAAAAAGAAGGAAAAAAAGAUCAGAAGGUACAUGAGGAUCACCCAUGUGGGAA [milkweed 10]	43.1 nM	39.9 nM
AGGGAGUGAGGAUAUGCGAAAGAAAAAGAAGGAAAAAAAGAGCAGAAGGUACAUGAGGAUCACCCAUGUAAAAA [milkweed 8]	27.9 nM	16.9 nM
AGUAUGCGAGGAUAUACAUGAGGAUCACCCAUGUGAGAGAUAAAAGUGAGAAAGAAAUGUAGAAGGCGCGUACA [JL Lego Mod 22]	98.8 nM	43 nM
AGUAUGCGAGGAUAUACAUGAGGAUCACCCAUGUGAGAGAUAAAAGUGAGAAAGACAAGUAGAAGGCGCGUACA [JL Lego Mod 23]	54.8 nM	354 nM
AGUAUGCGAGGAUAUACAUGAGGAUCACCCAUGUGAGAGAUAAGUGUGAGAAAGACAUGUAGAAGGCGCGUACA [JL Lego Mod 28]	146 nM	35.1 nM
AGUCAGAGAGGAUAUACAUGAAAAAAAAAAGUUAGAUCCCUACAUGAGGAUCACCCAUGUAGAAGGCUCUGACA [Ex2 Design 151: Sub-opt 15]	57.8 nM	27 nM
AGUCAUACAGGAUAUACAUGAGGAUCACCCAUGUAUAUCCAAAAAAGGUGAUCCUCAUGUAGAAGGGUAUGACA [EX3 202: Super Stable 2]	13.7 nM	26.9 nM
AGUCCAGAAGGAUAUACAUAGGUGAUAAAAAAAAAAAAACUACAUGAGGAUCACCCAUGUAGAAGGUCUGGACA [Brourd - Exclusion 2 - Sub 3]	37.8 nM	24.5 nM
AGUUGGCGAGGAUAUACAUGAGGAUCACCCAUGUAAAAUAAAUAAAAAAAGGGAGAAAGUAGAAGGCGCUGACA [73%, Moding Norbert Elias, 12]	56.2 nM	193 nM
AGUUGGCGAGGAUAUACAUGAGGAUCACCCAUGUAAAAUAAAUAAAAAAUAAAGGGAAGUAGAAGGCGCUGACA [73%, Moding Norbert Elias, 15]	41.8 nM	77 nM
AGUUGGCGAGGAUAUACAUGAGGAUCACCCAUGUAAAAUAAAUAAAAAGGGAAAGAAAGUAGAAGGCGCUGACA [73%, Moding Norbert Elias, 10]	42.4 nM	83.3 nM
AGUUGGCGAGGAUAUACAUGAGGAUCACCCAUGUAAAAUAAUGAAAAAGUAGGGAAAAGUAGAAGGCGCUGACA [73%, Moding Norbert Elias, 19]	36.2 nM	96.7 nM
AGUUGGCGAGGAUAUACAUGAGGAUCACCCAUGUGAGAGAAAAACUCGAAAGAGAAAAGUAGAAGGCGCUGACA [73%, Moding Norbert Elias, 6]	19.3 nM	82.2 nM
AUAAAGUAAGGAUAUGCGAAUAAAUAAGUAGACGAAUGAAAGCAGAAGGUACAUGAGGAUCACCCAUGUAAGAA [Ex 4 Tesla 2]	30.3 nM	19 nM
AUAAUGAGAGGAUAUACAUGAGGAUCACCCAUGUAAUUAACACGGCGAGCACCAAUACGUAGAAGGCUCAUUUA [JR_Exc003+Sub602]	22.4 nM	49.9 nM
AUAAUGUGAGGAUAUACAUGAGGAUCACCCAUGUAAUUAAAAAGGAGAGAAACAAUACGUAGAAGGUACAUUUA [JR_Exc003_Sub510]	26.7 nM	29 nM
AUAGGCCUAGGAUAUACAUGAGGAUCACCCAUGUAAACAGAUAGAUCAAGGUAAACGAGUAGAAGGAGGAAUAA [JR_Exc003_Sub209]	22 nM	17.8 nM
AUAGGUCGAGGAUAUACAUGAGGAUCACCCAUGUAAAUAAAUAAAUAAAACUCCACAAGUAGAAGGCGAAAUAA [JR_Exc003_Sub201]	28.1 nM	22.6 nM

Sequence	apparent KD of MS2 coat protein (MS2 coat protein [1])	apparent KD of MS2 coat protein (MS2 coat protein [2])
AUAGUAGGAGGAUAUACAUAGAUACAGAUACAUGUAGACGUACAUGAGGAUCACCCAUGUAGAAGGCCUAUGAA [Mat - Same state - Mayanna Mod - D149]	126 nM	116 nM
AUCUAGUCAGGAUAUCGAUGAAAUGAAGUGAAAGAAAAGAACGAGAAGGGACAUGAGGAUCACCCAUGUUAGAA [EteRNA is fun!]	31.2 nM	18.8 nM
AUCUUGUGAGGAUAUGCAUGAAAUGAAGUGAAAGAAAAGAAGCAGAAGGCACAUGAGGAUCACCCAUGUUAGAA [EteRNA is fun!]	33.5 nM	62.2 nM
AUUAUGUAAGGAUAUGAGUGAACAACAAAACAAAUAACGACUCAGAAGGUACAUGAGGAUCACCCAUGUAUAAA [May 70]	28.9 nM	21 nM
CAAAGGUGAGGAUAUACAUAACUAUGACGAAAGUCAUAAACACAUGAGGAUCACCCAUGUAGAAGGCACCACAA [e2]	32.6 nM	29.9 nM
CAGUACUGAGGAUAUACAUGAGGAUCACCCAUGUAAAAAACCUACGAAAGUAGGAAAUGUAGAAGGCAGUACUG [Ex3: 803]	16.4 nM	22.2 nM
CAUAAGCAAGGAUAUACAUGAGGAUCACCCAUGUAGCUUUGCUUCGUGGGCACAACAUGUAGAAGGUGCGAAAA [Leceedon]	15 nM	13.9 nM
CCACAGGUAGGAUAUGCUGGGUGGGAUAAAUAAUUCCUGUGACAUGAGGAUCACCCAUGUAGAAGGACCAAAAG [Rixela]	22.9 nM	40.1 nM
CCUAUGUCAGGAUAUCAGUAGUAAAAAAAAAAAAUUACUACUGAGAAGGGACAUGAGGAUCACCCAUGUCACUU [EX4 311: Super Stable 11]	28.5 nM	18.8 nM
CUCAAGUGAGGAUAUUCAAGAAAAGAAAAGAAAGAAAAGAAGAAGAAGGCACAUGAGGAUCACCCAUGUAAGAA [EteRNA is fun!]	34.9 nM	57.5 nM
CUCAAGUGAGGAUAUUUAAGAAAAGAAGAGAAAGAAAAGAAAAAGAAGGCACAUGAGGAUCACCCAUGUAAGAA [EteRNA is fun!]	31.5 nM	32.8 nM
CUCAUGUCAGGAUAUCAGUAGUAAAAAAAAAAAAUUACUACUGAGAAGGGACAUGAGGAUCACCCAUGUCCCUU [EX4 301: Super Stable 1]	20.4 nM	16.7 nM
CUCAUGUGAGGAUAUCAGUAGUAAAAAAAAAAAAUUACUACUGAGAAGGCACAUGAGGAUCACCCAUGUGCCUU [EX4 325: Super Stable 25]	18.9 nM	15.5 nM
CUCAUGUGAGGAUAUCAGUAGUAAAAAAAUAAAAUUACUACUGAGAAGGCACAUGAGGAUCACCCAUGUGCCAA [EX4 337: Super Stable 37]	21.3 nM	27.6 nM
CUCUAGUCAGGAUAUGGAAGAAAAGAAGAGAAAGAAAAGAACCAGAAGGGACAUGAGGAUCACCCAUGUAAGAA [EteRNA is fun!]	78.2 nM	41.8 nM
CUCUUGUAAGGAUAUAAAUGAAAAGAAGUGAAAGAAAAGAAUUAGAAGGUACAUGAGGAUCACCCAUGUUAGAA [EteRNA is fun!]	22.1 nM	18.5 nM
CUCUUGUGAGGAUAUGAAAGAAAAGAAGAGAAAGAAAAGAAUCAGAAGGCACAUGAGGAUCACCCAUGUAAGAA [EteRNA is fun!]	27.4 nM	106 nM
CUCUUGUGAGGAUAUGUAAGAAAAGAAAAGAAAGAAAAGAAACAGAAGGCACAUGAGGAUCACCCAUGUAAGAA [EteRNA is fun!]	31.7 nM	45.9 nM
GAAAAGGUAGGAUAUACGAAAAAAAAGGGUAAAAUAAAUAAACAUGAGGAUCACCCAUGUAGAAGGACCAAAAG [Mat - Exclusion 2 - Tesla mod - D39]	30.1 nM	49.6 nM
GAAAAGUCAGGAUAUACAGAAAAAAAAACGAAAAAAAAUCUGUAGAAGGGACAUGAGGAUCACCCAUGUAAAAG [Mat - Exclusion 4 - Mayanna - D123]	52.6 nM	38.7 nM
